Consider two molecules from doi:10.1101/2023.12.07.570558 (bioRxiv, 2023).

The target of the test is T1, His-tagged SIRT1 (bacterially expressed) (human, UniProt Q96EB6).
T1 sequence: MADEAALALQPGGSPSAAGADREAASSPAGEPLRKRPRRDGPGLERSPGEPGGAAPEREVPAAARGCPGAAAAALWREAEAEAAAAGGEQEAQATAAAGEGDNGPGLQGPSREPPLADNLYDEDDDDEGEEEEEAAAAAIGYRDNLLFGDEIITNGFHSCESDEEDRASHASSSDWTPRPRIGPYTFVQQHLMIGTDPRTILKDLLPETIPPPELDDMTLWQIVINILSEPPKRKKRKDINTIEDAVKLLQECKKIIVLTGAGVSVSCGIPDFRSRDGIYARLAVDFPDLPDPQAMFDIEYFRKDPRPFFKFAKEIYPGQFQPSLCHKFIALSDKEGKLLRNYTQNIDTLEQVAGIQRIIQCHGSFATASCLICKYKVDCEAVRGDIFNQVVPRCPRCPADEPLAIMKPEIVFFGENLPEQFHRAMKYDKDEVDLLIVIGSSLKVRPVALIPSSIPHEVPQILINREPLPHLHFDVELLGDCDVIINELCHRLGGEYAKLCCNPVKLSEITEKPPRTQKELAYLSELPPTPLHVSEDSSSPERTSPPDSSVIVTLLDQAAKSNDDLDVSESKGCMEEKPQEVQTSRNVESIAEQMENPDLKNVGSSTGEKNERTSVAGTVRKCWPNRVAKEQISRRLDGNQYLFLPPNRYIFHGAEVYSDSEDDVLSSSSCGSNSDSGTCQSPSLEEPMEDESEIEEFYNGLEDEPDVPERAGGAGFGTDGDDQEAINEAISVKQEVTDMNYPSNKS
Nature of the test: SEC. A general note: SEC sorts molecules by how far they enter the pores of the column.

B1: His-tagged TULP3 (bacterially expressed) (natural protein)
chain: MEASRCRLSPSGDSVFHEEMMKMRQAKLDYQRLLLEKRQRKKRLEPFMVQPNPEARLRRAKPRASDEQTPLVNCHTPHSNVILHGIDGPAAVLKPDEVHAPSVSSSVVEEDAENTVDTASKPGLQERLQKHDISESVNFDEETDGISQSACLERPNSASSQNSTDTGTSGSATAAQPADNLLGDIDDLEDFVYSPAPQGVTVRCRIIRDKRGMDRGLFPTYYMYLEKEENQKIFLLAARKRKKSKTANYLISIDPVDLSREGESYVGKLRSNLMGTKFTVYDRGICPMKGRGLVGAAHTRQELAAISYETNVLGFKGPRKMSVIIPGMTLNHKQIPYQPQNNHDSLLSRWQNRTMENLVELHNKAPVWNSDTQSYVLNFRGRVTQASVKNFQIVHKNDPDYIVMQFGRVADDVFTLDYNYPLCAVQAFGIGLSSFDSKLACE
In the case of B1, the binding result is listed as “binds”.

B2: His-tagged TULP3-4G (natural protein)
chain: MEASRCRLSPSGDSVFHEEMMKMRQAKLDYQRLLLEKRQRKKRLEPFMVQPNPEARLRRAKPRASDEQTPLVNCHTPHSNVILHGIDGPAAVLKPDEVHAPSVSSSVVEEDAENTVDTASKPGLQERLQKHDISESVNFDEETDGISQSACLERPNSASSQNSTDTGTSGSATAAQPADNLLGDIDDLEDFVGSGAPQGVTVRCRIIRDKRGMDRGLFPTYYMYLEKEENQKIFLLAARKRKKSKTANYLISIDPVDLSREGESYVGKLRSNLMGTKFTVYDRGICPMKGRGLVGAAHTRQELAAISYETNVLGFKGPRKMSVIIPGMTLNHGQIGYQPQNNHDSLLSRWQNRTMENLVELHNKAPVWNSDTQSYVLNFRGRVTQASVKNFQIVHKNDPDYIVMQFGRVADDVFTLDYNYPLCAVQAFGIGLSSFDSKLACE
B2: the binding result is recorded as “binds”.
